Six substances from paper PMC1934351 can be followed below.

Data set [1] relates to L1 repressor CI (native, untagged) (Mycobacteriophage L1). As to the kind of experiment: equilibrium binding. The settings on record: data not shown; EMSA in Buffer A (binding buffer composition not given in material) with 10 ug/ml BSA, ~0.1 nM 32P-labeled operator, 20 ul, 25 C for 20 min (also 32, 37, 42 C …).
The target in data set [2] is C-terminal domain (CTD) of L1 repressor CI (mycobacteriophage L1). In words: cross-linking; 0.1% glutaraldehyde for 2 min after 20 min at 25°C in Buffer A, ~0.5 uM protein, SDS-10% PAGE, silver staining; monomer to dimer.
The target is the same in data set [3]. In words: SEC; analytical HPLC gel filtration (Protein Pak, Waters) in Buffer A minus PMSF; ~20 uM protein loaded; column calibrated with BSA, ovalbumin, carbonic anhydrase, lysozyme; monomer to dimer.
The target of data set [4] is N-terminal histidine-tagged repressor (CI) of temperate mycobacteriophage L1 (mycobacteriophage L1). In words: cross-linking; 0.1% glutaraldehyde for 2 min after 20 min at 25°C in Buffer A, ~0.5 uM protein, SDS-10% PAGE, silver staining; monomer to dimer.
For data set [5] the target is unchanged. As to the kind of experiment: SEC; analytical HPLC gel filtration (Protein Pak, Waters) in Buffer A minus PMSF; ~20 uM protein loaded; column calibrated with BSA, ovalbumin, carbonic anhydrase, lysozyme; monomer to dimer.
Data set [6] relates to L1 repressor CI (native, untagged) (Mycobacteriophage L1). In words: EMSA. The settings on record: EMSA in Buffer A (binding buffer composition not given in material) with 10 ug/ml BSA, ~0.1 nM 32P-labeled operator, 20 ul, 25 C for 20 min (also 32, 37, 42 C …); for Kd: 25 C, apparent Kd at 50% saturation.

Chain of N-terminal histidine-tagged repressor (CI) of temperate mycobacteriophage L1 (Q05286 whole entry): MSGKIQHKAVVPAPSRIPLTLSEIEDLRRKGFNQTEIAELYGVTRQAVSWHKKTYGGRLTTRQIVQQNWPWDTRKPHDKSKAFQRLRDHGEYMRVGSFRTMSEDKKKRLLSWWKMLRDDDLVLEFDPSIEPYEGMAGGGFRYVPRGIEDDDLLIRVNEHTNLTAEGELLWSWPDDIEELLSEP

Take 21 bp DNA carrying O64 operator: the binding signal (fold higher affinity than N4) in data set [1] was determined as 2.57.

Turning to 21 bp DNA carrying OL operator, in data set [1], the binding signal (affinity relative to N3 (1/2.57)) was 0.389. Turning to “C-terminal domain (CTD) of L1 repressor CI (domain or fragment)”, the stoichiometry N in data set [2] and in data set [3] was 2 throughout. Take “N-terminal histidine-tagged repressor (CI) of temperate mycobacteriophage L1”: the stoichiometry N in data set [4] and in data set [5] was 2 throughout. In the case of O64 (~120 bp), in data set [6], the Kd was 140 nM and the binding signal (fold decrease of affinity vs 25 C) stood at 6. As for OL (97 bp), the Kd in data set [6] is 370 nM.
